± gives the standard deviation of the averaged measurements.

This data set relates to ATP. Nature of the data set: switch fluorescence ratio, 500 uM ATP over buffer (Cy3 cluster intensity, sum of 5 cycles each) (fold (ratio)); higher = stronger signal-on switching upon ATP binding; sequences stand for … in TCGTCGGCAGCGTCAGATGTGTATAAGAGACAGTTTTTTTTTTTTTTTTTTTTTTTTT…TC. Particulars: aptamer strand: ATP DNA aptamer (quencher-CACCTGGGGGAGTATTGCGGAGGAAGG + anchor), 100 nM annealed; ATP concentration: 500 uM. In a few lines:
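Five buffer/ATP imaging cycles were run on Cy3-labelled switching-strand clusters on a modified Illumina MiSeq flow-cell, with NaOH stripping and re-annealing between cycles. In each cycle, clusters annealed to 100 nM quencher-labelled ATP aptamer were imaged in selection buffer, then after 15 min with 500 uM ATP at 22 °C. Per cluster, the fluorescence ratio is summed target-cycle over summed buffer-cycle Cy3 intensity, averaged per switch-domain sequence. Only clusters within 100-1000 RFU were kept.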
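Also: ATP exposure 15 min at 22 °C before imaging.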

For TGATATTGTG, the switch fluorescence ratio turned out to be 0.994 ± 0.024. Consider TTGGGGTGCA, for which the switch fluorescence ratio was 0.99 ± 0.018. With TCTTTATCCC the figure was 1.18 ± 0.084; with ATCCGCGTAG, 2.17 ± 0.017. With CCGTACGTTT the figure was 1.24 ± 0.024; with GGTATTTTTG, 0.992 ± 0.019; with GAGTGGGTAG, 1.03 ± 0.025.

GGTTGGGTCC: the switch fluorescence ratio was 0.9701 ± 0.0018. In the case of ATCTAACCGA, the switch fluorescence ratio amounted to 1.06 ± 0.026. Consider GGGTACGTTG, for which the switch fluorescence ratio stood at 1.01 ± 0.016. With GGGGTCATGC the figure was 0.97 ± 0.041; with TTCCGGGGGA, 1.08 ± 0.11. The result for TGAGATTTTT reads 0.975 ± 0.048. With GAGTTAGGCA the figure was 1.029 ± 0.0098. GGGGGTTTAT: the switch fluorescence ratio stood at 1.01 ± 0.017. As to TATTTAAAGC, the switch fluorescence ratio was 0.9768 ± 0.0092. With CGAGGATTTG the figure was 0.994 ± 0.018; with AGGTAGGTGT, 1.04 ± 0.023; with TTCAGTCGAG, 0.979 ± 0.02.

Take TGTCGTTGGG: the switch fluorescence ratio amounted to 0.9566 ± 0.0035. Consider GCTTTTAGGT, for which the switch fluorescence ratio worked out at 0.968 ± 0.06. Regarding AGACGGCGTG, the switch fluorescence ratio was 0.9799 ± 0.0066.

Turning to GTGTAATTAG, the switch fluorescence ratio is 0.982 ± 0.035. For the sequence TTCAGGATGG, the switch fluorescence ratio is 1.02 ± 0.017. For GGGTGGCGAC, the switch fluorescence ratio was 0.988 ± 0.014. With TGTTGTTGGG the figure was 0.9946 ± 0.0087. With TATTGCTATT the figure was 0.972 ± 0.017; with GTTATGGTTT, 0.986 ± 0.031. As for GAGGGGGTGC, the switch fluorescence ratio came out at 1.04 ± 0.069. Turning to ATGATGGCAA, the switch fluorescence ratio worked out at 1.03 ± 0.027. With GTGGGCGGCC the figure was 0.99 ± 0.028; with TTTTCAAGTC, 1.05 ± 0.15; with TGTAAAGGGT, 0.9778 ± 0.0084. With TTTCGGGGAT, the switch fluorescence ratio worked out at 1.03 ± 0.038. With GAGGGTTAAG the figure was 1.02 ± 0.029; with TCAGAGATGA, 0.95 ± 0.026; with AAGTGGGGTC, 0.948 ± 0.037. TTAGTTAAAT: the switch fluorescence ratio came out at 1.002 ± 0.0013.

In the case of TTAATAGGG, the switch fluorescence ratio was 1 ± 0.022.

On to ATTGAAGATG, for which the switch fluorescence ratio is 0.971 ± 0.025.

As to TCATGCAGAT, the switch fluorescence ratio worked out at 1.02 ± 0.056. With TCTATCTAGA the figure was 0.988 ± 0.014. With GAGGTTTGGC the figure was 0.988 ± 0.051; with TGAGGCCGAA, 1.015 ± 0.0088. With TCGGTTGGTT, the switch fluorescence ratio turned out to be 0.967 ± 0.023. With AATTTTAGCT the figure was 1.008 ± 0.0066. With TTGGTTGGGT the figure was 0.997 ± 0.041; with ACAGCGTTTG, 0.983 ± 0.03. In the case of GGTCTACTTG, the switch fluorescence ratio stood at 0.984 ± 0.057. On to TAGGTGTTAT, for which the switch fluorescence ratio worked out at 1.02 ± 0.037. On to GACGCCTAGT, for which the switch fluorescence ratio came out at 1.036 ± 0.0021. The result for TTGCTATAGA reads 1.01 ± 0.017; that for AAGGGAGAAA, 0.984 ± 0.06; that for GGTCGGGGCG, 1.02 ± 0.071. With GTGCGGAGAA the figure was 0.986 ± 0.035. With AGGGGGCCTG the figure was 0.992 ± 0.01; with TTGGTGGGGA, 0.987 ± 0.042; with CATCAATAAT, 1.045 ± 0.0083.

As to TTTAGGCTTG, the switch fluorescence ratio amounted to 1.02 ± 0.017. In the case of TTCTTAACAT, the switch fluorescence ratio is 1.054 ± 0.01. For the sequence TTCCTTGGGT, the switch fluorescence ratio worked out at 1.01 ± 0.017. The result for GGGTGAGATA reads 1.07 ± 0.011; that for AATCGGTTGT, 0.9815 ± 0.005; that for TATGATGTGC, 0.969 ± 0.017.

On to GATAGACCAG, for which the switch fluorescence ratio worked out at 1.01 ± 0.025. With CGGGGATTGG the figure was 1 ± 0.042.

Values taken from the supplement of paper PMC10126150.
